“Also recorded” adds a separate entry of the source.
Key:
[1] = molecular target: T1, BACE1 (Cricetulus griseus, UniProt G3IAK4); assay: BACE1 inhibitor treatment of CHO cells expressing human APPV717F, Western blot of supernatants; assay type: cell-based; conditions: 2 μM
T1 construct: endogenous in cells; host or cells: CHO cells overexpressing human APPV717F (CHO / 7PA2)
Description: a) Supernatants of CHO cells expressing human APPV717F without or with BACE1 inhibition (BI; 2 μM Merck IV) were compared to synthetic peptides of Aη-β and Aη-α. Increased Aη-α peptide levels were observed upon BACE1 inhibitor treatment with 2D8 and 2E9 antibodies. The fragment with the lowest molecular weight, co-migrating with the synthetic peptide Aη-β, disappeared upon BACE1 inhibition b) After overnight incubation of DIV 16 primary hippocampal neurons without or with the BACE1 inhibitor (BI; 2 μM Merck IV), supernatants were analyzed by Western blotting. […] Total levels of secreted APP (22C11) were unchanged while sAPP-α levels increased. […] Inhibitor treated mice and vehicle treated controls were sacrificed and analyzed after 5, 8 or 24 h. […]
CHO and 7PA2^44 cells were grown in DMEM/F12 (Thermo Scientific) supplemented with 10% fetal calf serum (FCS, Thermo Scientific) plus Penicillin/Streptomycin and NEAA (Non-essential amino acids, PAA) in a humid incubator with 5% CO2 at a temperature of 37° C. […] The protein concentration of lysates was determined using the Uptima BC Assay Protein Quantitation kit (Interchim).
Proteins were separated under denaturing conditions using discontinuous SDS-PAGE. […] CTFs, Aη and Aβ were detected after transfer on Nitrocellulose membranes (Protran BA85; GE Hlealthcare), while other proteins were blotted on PVDF (Immobilon-P, Merck Millipore). […]

[2] = tested on: hippocampal LTP; assay: Long-term potentiation (LTP) recordings in acute hippocampal slices (fEPSP at the CA3-CA1 synapse); assay type: cell-based, mouse; conditions: for fEPSP baseline responses after incubation with SEC fractions: 1/15 dilution, 15 min bath application before LTP induction
Description: a) Aη-α and Aη-β peptides were expressed in CHO cells and collected in OPTIMEM medium. […] Higher molecular weight bands are most likely due to posttranslational modification by glycosylation. b-e) SEC fractions enriched for Aη were diluted (1:15) in ACSF for the treatment of hippocampal slices and LTP measurements. Aη-α, Aη-β and control SEC fractions (obtained from CHO cells transfected with the empty vector) were perfused over mouse hippocampal slices for 15 min after obtaining a stable baseline of a fEPSP at the CA3-CA1 synapse.
OPTIMEM was used to collect CHO cell supernatants. SEC was performed with concentrated CHO supernatants using a FPLC (ÄKTApurifier) equipped with a Superdex75 column (GE Healthcare). 1 ml samples were collected with a mobile phase flow rate set at 0.5 ml/min in standard ACSF. Acute hippocampal slices were prepared from Swiss mice (PND20-30) and kept in ACSF^42. Extracellular field excitatory post-synaptic potentials (fEPSPs) were obtained from CA1 pyramidal neurons. After 15 minutes of bath application of SEC fractions^43, LTP was induced by high frequency stimulation (2 pulses of 100 Hz for 1 second with a 20 second inter-pulse interval). LTP was recorded for 60 minutes and statistical analysis was performed on the last 15 minutes of recording compared to baseline fEPSP values.
Transverse hippocampal slices ([…]) were prepared from postnatal day 20-30 Swiss mice following standard procedures^56. Slices were cut in ice-cold oxygenated (95% O2/5% CO2) solution containing 206 mM sucrose, 2.8 mM KCl, 1.25 mM NaH2PO4, 2 mM MgSO4, 1 mM MgCl2, 1 mM CaCl2, 26 mM NaHCO3, 0.4 mM sodium ascorbate, 10 mM glucose (pH 7.4). For recovery (1 h), slices were incubated at 27° C. in oxygenated standard artificial cerebrospinal fluid (ACSF) containing: 124 mM NaCl, 2.8 mM KCl, 1.25 mM NaH2PO4, 2 mM MgSO4, 3.6 mM CaCl2, 26 mM NaHCO3, 0.4 mM sodium ascorbate, 10 mM glucose (pH 7.4)^57. Slices were inspected in a chamber on an upright microscope (Slicescope, Scientifica Ltd) with IR-DIC illumination and were perfused with the oxygenated ACSF at 27±1° C. Field excitatory post-synaptic potentials (fEPSPs) were recorded in the stratum radiatum of the CA1 region using a glass electrode (filled with 1 M NaCl/10 mM HEPES, pH 7.4) and the stimuli (30% of maximal fEPSP) were delivered to the Schaeffer Collateral pathway by a monopolar glass electrode (filled with ACSF). Electrodes were specifically placed just below the surface of the slice to maximize the exposure to circulating peptides. A minimum of 15 minutes stable baseline was first obtained in standard ACSF followed by another 15 minutes of bath application of ACSF containing SEC fractions (CHO, Aη-α or Aη-β; 1/15 dilution, interleaved recordings) using re-circulation with a peristaltic pump at 2.5-3 ml min^−1 while being continuously aerated with 95% oxygen. […] In the continuous presence of the ACSF/SEC solution, LTP was then induced using a high frequency stimulation (HSF) protocol with 2 pulses of 100 Hz for 1 sec with 20 see interval between pulses, and recorded for one hour. Control recordings (no application of SEC fractions) were obtained in an interleaved fashion where ACSF was re-circulated using an identical procedure. For LTP analysis, the first third of the fEPSP slope was calculated in baseline condition (15 minutes prior to induction of LTP and for 60 minutes post-induction). […]

[3] = SEC fractions from conditioned media of CHO cells, diluted 1:15 in ACSF, perfused 15 min before HFS, LTP 45-60 min post-HFS

T1 sequence (G3IAK4 22-501): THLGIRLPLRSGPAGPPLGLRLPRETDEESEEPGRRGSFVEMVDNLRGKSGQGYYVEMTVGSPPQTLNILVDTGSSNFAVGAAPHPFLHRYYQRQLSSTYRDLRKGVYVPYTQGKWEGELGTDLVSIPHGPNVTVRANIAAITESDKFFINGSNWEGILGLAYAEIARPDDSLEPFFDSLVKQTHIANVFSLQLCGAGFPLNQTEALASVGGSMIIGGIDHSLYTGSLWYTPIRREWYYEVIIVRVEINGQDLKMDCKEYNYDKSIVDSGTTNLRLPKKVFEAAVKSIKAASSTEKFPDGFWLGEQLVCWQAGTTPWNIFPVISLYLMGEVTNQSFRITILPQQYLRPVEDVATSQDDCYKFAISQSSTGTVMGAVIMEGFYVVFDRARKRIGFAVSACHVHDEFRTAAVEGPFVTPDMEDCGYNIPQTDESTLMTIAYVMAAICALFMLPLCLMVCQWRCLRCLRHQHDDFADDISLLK

Row | Molecule | lowest molecular weight fragment co-migrating with synthetic Aη-β [1] | Aη-α peptide levels in supernatant ([1]; 2D8 and 2E9 antibodies) | effect on LTP ([2]; 100 nM final in 25 ml re-circulating ACSF, vs interleaved ACSF recordings, 45-60 min post-LTP induction) | fEPSP baseline responses after incubation with SEC fractions [2] | effect on LTP [2, 3]
1 | C[C@@H](NC(=O)c1cc(C(=O)N[C@@H](Cc2ccccc2)[C@H](O)CNC2CC2)cc(N(C)S(C)(=O)=O)c1)c1ccccc1 [Merck IV] | disappeared | Increased | – | – | –
2 | AβS26C dimers: AβS26C dimers from JPT Peptide Technologies, Germany [reference compound] | – | – | reduced | – | –
3 | Aη-β: Aη-β-peptide (residues 505-596 of P05067-4), 92 aa, expressed in CHO cells and enriched by SEC (protein, listed as Homo sapiens) MISEPRISYGNDALMPSLTETKTTVELLPVNGEFSLDDLQPWHSFGADSVPANTENEVEPVDARPAADRGLTTRPGSGLTNIKTEEISEVKM | – | – | – | No alterations | had no effect; also recorded: did not significantly inhibit
4 | Aη-α: Aη-α-peptide (residues 505-612 of P05067-4), 108 aa, expressed in CHO cells and enriched by SEC (protein, listed as Homo sapiens) MISEPRISYGNDALMPSLTETKTTVELLPVNGEFSLDDLQPWHSFGADSVPANTENEVEPVDARPAADRGLTTRPGSGLTNIKTEEISEVKMDAEFRHDSGYEVHHQK | – | – | – | No alterations | significantly inhibited
